Laboratory results from patent US20230295301A1 (SHANGHAI JUNSHI BIOSCIENCES, published 2023).

Target: T1, huCTLA-4 ECD (his-tag) (human, UniProt P16410 37-162)
T1 construct: also called HX1 hCTLA4 his; HX1 huCTLA4 his; not shown: his-tag
T1 sequence: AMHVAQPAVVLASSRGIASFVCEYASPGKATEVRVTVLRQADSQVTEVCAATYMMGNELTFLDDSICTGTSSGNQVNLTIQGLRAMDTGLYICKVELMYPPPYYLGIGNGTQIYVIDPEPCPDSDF
Assay: ELISA, coated huCTLA-4 his
Procedure: HX1 hCTLA4 his was diluted with PBS (Hyclone) to 1.0 μg/mL, and the dilution was added to a microplate at 100 μL/well. The plate was let stand in an incubator at 37° C. and coated for 90 min and then washed, and 2% BSA was added to the plate at 200 μL/well. The plate was incubated in an incubator at 37° C. for 90 min and then washed. The humanized anti-CTLA-4 antibodies in Table 4 and the control antibody (ipilimumab) were diluted with a diluent (2% BSA) to 1000 ng/mL. The dilution performed each time was not higher than 10-fold. Then, the humanized antibodies and the control antibody were serially diluted 2.5-fold on a sample dilution plate. All the humanized antibody solutions and the control antibody solution were added to a microplate at 100 μL/well. The plate was incubated in an incubator at 37° C. for 60 min and then washed. An HRP-conjugated goat anti-human antibody IgG (Fc specific) was diluted 5000-fold with 2% BSA, and the dilution was added to the microplate at 100 μL/well. The plate was incubated in an incubator at 37° C. for 60 min and then washed. The color development solution TMB was added at 100 μL/well, during which bubbles were avoided. Color development was allowed at 37° C. for 15 min in the dark and then terminated by adding 2 M hydrochloric acid solution at 100 μL/well, during which bubbles were avoided. Reading (wavelength: 450/620 nm) was done within 10 min using a microplate reader.

Row | Binder | binding result
1 | HuJS007-49 (antibody, V domains shown, 4B7 VH2-2 + 4B7VL4; constant regions not specified) VH: QVQLQESGPGLVKPSQTLSLTCTVSAYSITSGYYWNWIRQHPGKGLEWIGYIGYDGSNNYNPSLKSRVTISRDTSKNQFSLKLSSVTAADTAVYYCARDYYSGYFDSWGQGTTLTVSS VL: DIQMTQSPSFLSASVGDRVTITCRASQNVGTYVAWYQQKPGKAPKPLIYSTSYRYSGVPSRFSGSGSGTEFTLTISSLQPEDFATYFCHQYDTYPLTFGAGTKLELK | binds
2 | HuJS007-50 (antibody, V domains shown, 4B7 VH2-2 + 4B7VL5; constant regions not specified) VH: QVQLQESGPGLVKPSQTLSLTCTVSAYSITSGYYWNWIRQHPGKGLEWIGYIGYDGSNNYNPSLKSRVTISRDTSKNQFSLKLSSVTAADTAVYYCARDYYSGYFDSWGQGTTLTVSS VL: DIQMTQSPSSLSASVGDRVTITCQASQNVGTYVAWYQQKPGKAPKPLIYSTSYRYSGVPSRFSGSGSGTDFTFTISSLQPEDIATYFCHQYDTYPLTFGAGTKLELK | binds
3 | HuJS007-58 (antibody, V domains shown, 4B7 VH2-3 + 4B7VL4; constant regions not specified) VH: QVQLQESGPGLVKPSETLSLTCTVSGYSITSGYYWNWIRQPPGKGLEWIGYIGYDGSNNYNPSLKSRVTISRDTSKNQFSLKLSSVTAADTAVYYCARDYYSGYFDSWGQGTTLTVSS VL: DIQMTQSPSFLSASVGDRVTITCRASQNVGTYVAWYQQKPGKAPKPLIYSTSYRYSGVPSRFSGSGSGTEFTLTISSLQPEDFATYFCHQYDTYPLTFGAGTKLELK | binds
4 | HuJS007-75 (antibody, V domains shown, 1A5 VH5 + 4B7VL3; constant regions not specified) VH: QVQLQESGPGLVKPSQTLSLTCAVSGYSISSGYYWNWIRQPPGKGLEWIGYIGYDGSNYYNPSLKSRVTMSVDTSKNQFSLKLSSVTAVDTAVYYCARNYYSGYFDSWGQGTTVTVSS VL: DIQMTQSPSSLSASVGDRVTITCRASQNVGTYVAWYQQKPGKAPKPLIYSTSYRYSGVPSRFSGSGSGTDFTLTISSLQPEDFATYFCHQYDTYPLTFGAGTKLELK | binds
5 | HuJS007-76 (antibody, V domains shown, 1A5 VH5 + 4B7VL4; constant regions not specified) VH: QVQLQESGPGLVKPSQTLSLTCAVSGYSISSGYYWNWIRQPPGKGLEWIGYIGYDGSNYYNPSLKSRVTMSVDTSKNQFSLKLSSVTAVDTAVYYCARNYYSGYFDSWGQGTTVTVSS VL: DIQMTQSPSFLSASVGDRVTITCRASQNVGTYVAWYQQKPGKAPKPLIYSTSYRYSGVPSRFSGSGSGTEFTLTISSLQPEDFATYFCHQYDTYPLTFGAGTKLELK | binds
6 | HuJS007-65 (antibody, V domains shown, 4B7 VH2-4 + 4B7VL2; constant regions not specified) VH: QVQLQESGPGLVKPSQTLSLTCAVSAYSITSGYYWNWIRQHPGKGLEWIGYIGYDGSNNYNPSLKSRVTISRDTSKNQFSLKLSSVTAADTAVYYCARDYYSGYFDSWGQGTTLTVSS VL: DIQMTQSPSSLSASVGDRVTITCRASQNVGTYVAWYQQKPGKVPKPLIYSTSYRYSGVPSRFSGSGSGTDFTLTISSLQPEDVATYFCHQYDTYPLTFGAGTKLELK | binds
7 | HuJS007-66 (antibody, V domains shown, 4B7 VH2-4 + 4B7VL3; constant regions not specified) VH: QVQLQESGPGLVKPSQTLSLTCAVSAYSITSGYYWNWIRQHPGKGLEWIGYIGYDGSNNYNPSLKSRVTISRDTSKNQFSLKLSSVTAADTAVYYCARDYYSGYFDSWGQGTTLTVSS VL: DIQMTQSPSSLSASVGDRVTITCRASQNVGTYVAWYQQKPGKAPKPLIYSTSYRYSGVPSRFSGSGSGTDFTLTISSLQPEDFATYFCHQYDTYPLTFGAGTKLELK | binds
8 | HuJS007-57 (antibody, V domains shown, 4B7 VH2-3 + 4B7VL3; constant regions not specified) VH: QVQLQESGPGLVKPSETLSLTCTVSGYSITSGYYWNWIRQPPGKGLEWIGYIGYDGSNNYNPSLKSRVTISRDTSKNQFSLKLSSVTAADTAVYYCARDYYSGYFDSWGQGTTLTVSS VL: DIQMTQSPSSLSASVGDRVTITCRASQNVGTYVAWYQQKPGKAPKPLIYSTSYRYSGVPSRFSGSGSGTDFTLTISSLQPEDFATYFCHQYDTYPLTFGAGTKLELK | binds
9 | HuJS007-74 (antibody, V domains shown, 1A5 VH5 + 4B7VL2; constant regions not specified) VH: QVQLQESGPGLVKPSQTLSLTCAVSGYSISSGYYWNWIRQPPGKGLEWIGYIGYDGSNYYNPSLKSRVTMSVDTSKNQFSLKLSSVTAVDTAVYYCARNYYSGYFDSWGQGTTVTVSS VL: DIQMTQSPSSLSASVGDRVTITCRASQNVGTYVAWYQQKPGKVPKPLIYSTSYRYSGVPSRFSGSGSGTDFTLTISSLQPEDVATYFCHQYDTYPLTFGAGTKLELK | binds
10 | HuJS007-102 (antibody, V domains shown, 4B7 VH2-5 + 4B7VL3; constant regions not specified) VH: QVQLQESGPGLVKPSQTLSLTCAVSGYSITSGYYWNWIRQPPGKGLEWIGYIGYDGSNNYNPSLKNRVTMSVDTSKNQFSLKLSSVTAVDTAVYYCARDYYSGYFDSWGQGTTVTVSS VL: DIQMTQSPSSLSASVGDRVTITCRASQNVGTYVAWYQQKPGKAPKPLIYSTSYRYSGVPSRFSGSGSGTDFTLTISSLQPEDFATYFCHQYDTYPLTFGAGTKLELK | binds
11 | HuJS007-104 (antibody, V domains shown, 4B7 VH2-5 + 4B7VL5; constant regions not specified) VH: QVQLQESGPGLVKPSQTLSLTCAVSGYSITSGYYWNWIRQPPGKGLEWIGYIGYDGSNNYNPSLKNRVTMSVDTSKNQFSLKLSSVTAVDTAVYYCARDYYSGYFDSWGQGTTVTVSS VL: DIQMTQSPSSLSASVGDRVTITCQASQNVGTYVAWYQQKPGKAPKPLIYSTSYRYSGVPSRFSGSGSGTDFTFTISSLQPEDIATYFCHQYDTYPLTFGAGTKLELK | binds
12 | HuJS007-59 (antibody, V domains shown, 4B7 VH2-3 + 4B7VL5; constant regions not specified) VH: QVQLQESGPGLVKPSETLSLTCTVSGYSITSGYYWNWIRQPPGKGLEWIGYIGYDGSNNYNPSLKSRVTISRDTSKNQFSLKLSSVTAADTAVYYCARDYYSGYFDSWGQGTTLTVSS VL: DIQMTQSPSSLSASVGDRVTITCQASQNVGTYVAWYQQKPGKAPKPLIYSTSYRYSGVPSRFSGSGSGTDFTFTISSLQPEDIATYFCHQYDTYPLTFGAGTKLELK | binds
13 | HuJS007-77 (antibody, V domains shown, 1A5 VH5 + 4B7VL5; constant regions not specified) VH: QVQLQESGPGLVKPSQTLSLTCAVSGYSISSGYYWNWIRQPPGKGLEWIGYIGYDGSNYYNPSLKSRVTMSVDTSKNQFSLKLSSVTAVDTAVYYCARNYYSGYFDSWGQGTTVTVSS VL: DIQMTQSPSSLSASVGDRVTITCQASQNVGTYVAWYQQKPGKAPKPLIYSTSYRYSGVPSRFSGSGSGTDFTFTISSLQPEDIATYFCHQYDTYPLTFGAGTKLELK | binds
14 | HuJS007-101 (antibody, V domains shown, 4B7 VH2-5 + 4B7VL2; constant regions not specified) VH: QVQLQESGPGLVKPSQTLSLTCAVSGYSITSGYYWNWIRQPPGKGLEWIGYIGYDGSNNYNPSLKNRVTMSVDTSKNQFSLKLSSVTAVDTAVYYCARDYYSGYFDSWGQGTTVTVSS VL: DIQMTQSPSSLSASVGDRVTITCRASQNVGTYVAWYQQKPGKVPKPLIYSTSYRYSGVPSRFSGSGSGTDFTLTISSLQPEDVATYFCHQYDTYPLTFGAGTKLELK | binds
15 | HuJS007-67 (antibody, V domains shown, 4B7 VH2-4 + 4B7VL4; constant regions not specified) VH: QVQLQESGPGLVKPSQTLSLTCAVSAYSITSGYYWNWIRQHPGKGLEWIGYIGYDGSNNYNPSLKSRVTISRDTSKNQFSLKLSSVTAADTAVYYCARDYYSGYFDSWGQGTTLTVSS VL: DIQMTQSPSFLSASVGDRVTITCRASQNVGTYVAWYQQKPGKAPKPLIYSTSYRYSGVPSRFSGSGSGTEFTLTISSLQPEDFATYFCHQYDTYPLTFGAGTKLELK | binds
16 | HuJS007-103 (antibody, V domains shown, 4B7 VH2-5 + 4B7VL4; constant regions not specified) VH: QVQLQESGPGLVKPSQTLSLTCAVSGYSITSGYYWNWIRQPPGKGLEWIGYIGYDGSNNYNPSLKNRVTMSVDTSKNQFSLKLSSVTAVDTAVYYCARDYYSGYFDSWGQGTTVTVSS VL: DIQMTQSPSFLSASVGDRVTITCRASQNVGTYVAWYQQKPGKAPKPLIYSTSYRYSGVPSRFSGSGSGTEFTLTISSLQPEDFATYFCHQYDTYPLTFGAGTKLELK | binds
17 | HuJS007-84 (antibody, V domains shown, 1A5 VH6 + 4B7VL3; constant regions not specified) VH: QVQLQESGPGLVKPSQTLSLTCAVSGYSISSGYYWNWIRQFPGKGLEWMGYIGYDGSNYYNPSLKNRVTMSVDTSKNQFSLKLSSVTAVDTAVYYCARNYYSGYFDSWGQGTTVTVSS VL: DIQMTQSPSSLSASVGDRVTITCRASQNVGTYVAWYQQKPGKAPKPLIYSTSYRYSGVPSRFSGSGSGTDFTLTISSLQPEDFATYFCHQYDTYPLTFGAGTKLELK | binds
18 | HuJS007-56 (antibody, V domains shown, 4B7 VH2-3 + 4B7VL2; constant regions not specified) VH: QVQLQESGPGLVKPSETLSLTCTVSGYSITSGYYWNWIRQPPGKGLEWIGYIGYDGSNNYNPSLKSRVTISRDTSKNQFSLKLSSVTAADTAVYYCARDYYSGYFDSWGQGTTLTVSS VL: DIQMTQSPSSLSASVGDRVTITCRASQNVGTYVAWYQQKPGKVPKPLIYSTSYRYSGVPSRFSGSGSGTDFTLTISSLQPEDVATYFCHQYDTYPLTFGAGTKLELK | binds
19 | HuJS007-68 (antibody, V domains shown, 4B7 VH2-4 + 4B7VL5; constant regions not specified) VH: QVQLQESGPGLVKPSQTLSLTCAVSAYSITSGYYWNWIRQHPGKGLEWIGYIGYDGSNNYNPSLKSRVTISRDTSKNQFSLKLSSVTAADTAVYYCARDYYSGYFDSWGQGTTLTVSS VL: DIQMTQSPSSLSASVGDRVTITCQASQNVGTYVAWYQQKPGKAPKPLIYSTSYRYSGVPSRFSGSGSGTDFTFTISSLQPEDIATYFCHQYDTYPLTFGAGTKLELK | binds
